Ki data for 2 molecules are collected here from paper PMC4997346 (2016).

No end group written: not given here.

Assay [1] concerns the target T1, FVIIa/TF extrinsic tenase complex [E] (Homo sapiens, UniProt P08709).
T1 chain 1: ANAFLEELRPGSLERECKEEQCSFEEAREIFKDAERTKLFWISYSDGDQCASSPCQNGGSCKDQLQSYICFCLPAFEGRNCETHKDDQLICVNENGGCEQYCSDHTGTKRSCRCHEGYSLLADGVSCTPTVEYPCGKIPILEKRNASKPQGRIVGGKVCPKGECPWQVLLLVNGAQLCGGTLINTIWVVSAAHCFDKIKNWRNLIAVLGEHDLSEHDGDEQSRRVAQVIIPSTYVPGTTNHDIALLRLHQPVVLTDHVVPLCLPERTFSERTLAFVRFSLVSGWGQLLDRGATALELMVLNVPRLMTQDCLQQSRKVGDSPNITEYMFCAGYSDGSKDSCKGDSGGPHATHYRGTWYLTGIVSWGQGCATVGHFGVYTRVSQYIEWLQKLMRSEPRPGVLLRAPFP
T1 chain 2: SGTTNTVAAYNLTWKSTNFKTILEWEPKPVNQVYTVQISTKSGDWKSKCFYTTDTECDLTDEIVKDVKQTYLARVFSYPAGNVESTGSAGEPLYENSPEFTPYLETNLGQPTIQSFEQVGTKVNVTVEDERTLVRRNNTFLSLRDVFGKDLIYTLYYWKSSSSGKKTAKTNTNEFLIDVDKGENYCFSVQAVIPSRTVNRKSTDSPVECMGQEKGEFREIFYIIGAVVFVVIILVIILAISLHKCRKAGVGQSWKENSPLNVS
Put plainly: FX activation inhibition kinetics (Lineweaver-Burk secondary plot).

Assay [2] has as its target intrinsic tenase complex (FIXa/FVIIIa) (Homo sapiens, UniProt P00740). The assay is described as above.
For a further assay, the target named is T2, FVIIa [E] (Homo sapiens, UniProt P08709).
T2 chain 1: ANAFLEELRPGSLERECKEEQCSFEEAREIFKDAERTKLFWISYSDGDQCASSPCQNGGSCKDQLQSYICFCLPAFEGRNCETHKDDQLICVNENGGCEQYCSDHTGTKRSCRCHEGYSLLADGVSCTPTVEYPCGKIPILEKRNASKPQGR
T2 chain 2: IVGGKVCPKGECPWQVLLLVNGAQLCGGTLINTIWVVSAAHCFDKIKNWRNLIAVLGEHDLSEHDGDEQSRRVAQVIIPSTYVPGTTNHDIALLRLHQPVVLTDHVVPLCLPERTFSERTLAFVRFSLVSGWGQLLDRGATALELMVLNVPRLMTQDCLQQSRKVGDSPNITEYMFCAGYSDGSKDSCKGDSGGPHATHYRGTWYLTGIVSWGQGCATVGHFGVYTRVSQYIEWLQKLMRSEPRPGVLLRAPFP
The assay is described as above.

The target of assay [3] is T1, FVIIa/TF extrinsic tenase complex [E]. Put plainly: FIX activation inhibition kinetics (Lineweaver-Burk secondary plot).
Assay [4] has as its target FVIIa/TF/FX extrinsic tenase complex [ES] (Homo sapiens, UniProt P08709). Briefly: FX activation inhibition kinetics (Lineweaver-Burk secondary plot, Ki').
A further assay has as its target FVIIa/FX complex [ES] (Homo sapiens, UniProt P08709). Described as above.
The target of assay [5] is FVIIa/TF/FIX complex [ES] (Homo sapiens, UniProt P08709). Put plainly: FIX activation inhibition kinetics (Lineweaver-Burk secondary plot, Ki').
The target in the next assay is T3, FVIIa/sTF complex [E] (Homo sapiens, UniProt P08709).
T3 chain 1: T1 chain 1
T3 chain 2: T1 chain 2
Briefly: FX activation inhibition kinetics (Lineweaver-Burk secondary plot).

Assay [6] has as its target FVIIa/sTF/FX complex [ES] (Homo sapiens, UniProt P08709). Briefly: FX activation inhibition kinetics (Lineweaver-Burk secondary plot, Ki').

Sequence of intrinsic tenase complex (FIXa/FVIIIa) (P00740 47-461, chain 1 of 2): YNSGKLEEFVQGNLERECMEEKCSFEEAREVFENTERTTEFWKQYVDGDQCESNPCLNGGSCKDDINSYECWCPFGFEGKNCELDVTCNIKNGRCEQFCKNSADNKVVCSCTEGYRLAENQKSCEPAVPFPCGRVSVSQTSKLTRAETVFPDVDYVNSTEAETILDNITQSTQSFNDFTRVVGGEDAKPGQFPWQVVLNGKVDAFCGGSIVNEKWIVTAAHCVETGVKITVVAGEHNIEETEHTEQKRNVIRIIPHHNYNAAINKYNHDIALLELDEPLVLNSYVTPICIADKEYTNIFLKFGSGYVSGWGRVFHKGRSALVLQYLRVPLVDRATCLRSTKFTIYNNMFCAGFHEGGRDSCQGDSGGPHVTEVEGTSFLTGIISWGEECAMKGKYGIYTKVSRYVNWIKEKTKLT
Sequence of intrinsic tenase complex (FIXa/FVIIIa) (P00451 20-2351, chain 2 of 2, further chain): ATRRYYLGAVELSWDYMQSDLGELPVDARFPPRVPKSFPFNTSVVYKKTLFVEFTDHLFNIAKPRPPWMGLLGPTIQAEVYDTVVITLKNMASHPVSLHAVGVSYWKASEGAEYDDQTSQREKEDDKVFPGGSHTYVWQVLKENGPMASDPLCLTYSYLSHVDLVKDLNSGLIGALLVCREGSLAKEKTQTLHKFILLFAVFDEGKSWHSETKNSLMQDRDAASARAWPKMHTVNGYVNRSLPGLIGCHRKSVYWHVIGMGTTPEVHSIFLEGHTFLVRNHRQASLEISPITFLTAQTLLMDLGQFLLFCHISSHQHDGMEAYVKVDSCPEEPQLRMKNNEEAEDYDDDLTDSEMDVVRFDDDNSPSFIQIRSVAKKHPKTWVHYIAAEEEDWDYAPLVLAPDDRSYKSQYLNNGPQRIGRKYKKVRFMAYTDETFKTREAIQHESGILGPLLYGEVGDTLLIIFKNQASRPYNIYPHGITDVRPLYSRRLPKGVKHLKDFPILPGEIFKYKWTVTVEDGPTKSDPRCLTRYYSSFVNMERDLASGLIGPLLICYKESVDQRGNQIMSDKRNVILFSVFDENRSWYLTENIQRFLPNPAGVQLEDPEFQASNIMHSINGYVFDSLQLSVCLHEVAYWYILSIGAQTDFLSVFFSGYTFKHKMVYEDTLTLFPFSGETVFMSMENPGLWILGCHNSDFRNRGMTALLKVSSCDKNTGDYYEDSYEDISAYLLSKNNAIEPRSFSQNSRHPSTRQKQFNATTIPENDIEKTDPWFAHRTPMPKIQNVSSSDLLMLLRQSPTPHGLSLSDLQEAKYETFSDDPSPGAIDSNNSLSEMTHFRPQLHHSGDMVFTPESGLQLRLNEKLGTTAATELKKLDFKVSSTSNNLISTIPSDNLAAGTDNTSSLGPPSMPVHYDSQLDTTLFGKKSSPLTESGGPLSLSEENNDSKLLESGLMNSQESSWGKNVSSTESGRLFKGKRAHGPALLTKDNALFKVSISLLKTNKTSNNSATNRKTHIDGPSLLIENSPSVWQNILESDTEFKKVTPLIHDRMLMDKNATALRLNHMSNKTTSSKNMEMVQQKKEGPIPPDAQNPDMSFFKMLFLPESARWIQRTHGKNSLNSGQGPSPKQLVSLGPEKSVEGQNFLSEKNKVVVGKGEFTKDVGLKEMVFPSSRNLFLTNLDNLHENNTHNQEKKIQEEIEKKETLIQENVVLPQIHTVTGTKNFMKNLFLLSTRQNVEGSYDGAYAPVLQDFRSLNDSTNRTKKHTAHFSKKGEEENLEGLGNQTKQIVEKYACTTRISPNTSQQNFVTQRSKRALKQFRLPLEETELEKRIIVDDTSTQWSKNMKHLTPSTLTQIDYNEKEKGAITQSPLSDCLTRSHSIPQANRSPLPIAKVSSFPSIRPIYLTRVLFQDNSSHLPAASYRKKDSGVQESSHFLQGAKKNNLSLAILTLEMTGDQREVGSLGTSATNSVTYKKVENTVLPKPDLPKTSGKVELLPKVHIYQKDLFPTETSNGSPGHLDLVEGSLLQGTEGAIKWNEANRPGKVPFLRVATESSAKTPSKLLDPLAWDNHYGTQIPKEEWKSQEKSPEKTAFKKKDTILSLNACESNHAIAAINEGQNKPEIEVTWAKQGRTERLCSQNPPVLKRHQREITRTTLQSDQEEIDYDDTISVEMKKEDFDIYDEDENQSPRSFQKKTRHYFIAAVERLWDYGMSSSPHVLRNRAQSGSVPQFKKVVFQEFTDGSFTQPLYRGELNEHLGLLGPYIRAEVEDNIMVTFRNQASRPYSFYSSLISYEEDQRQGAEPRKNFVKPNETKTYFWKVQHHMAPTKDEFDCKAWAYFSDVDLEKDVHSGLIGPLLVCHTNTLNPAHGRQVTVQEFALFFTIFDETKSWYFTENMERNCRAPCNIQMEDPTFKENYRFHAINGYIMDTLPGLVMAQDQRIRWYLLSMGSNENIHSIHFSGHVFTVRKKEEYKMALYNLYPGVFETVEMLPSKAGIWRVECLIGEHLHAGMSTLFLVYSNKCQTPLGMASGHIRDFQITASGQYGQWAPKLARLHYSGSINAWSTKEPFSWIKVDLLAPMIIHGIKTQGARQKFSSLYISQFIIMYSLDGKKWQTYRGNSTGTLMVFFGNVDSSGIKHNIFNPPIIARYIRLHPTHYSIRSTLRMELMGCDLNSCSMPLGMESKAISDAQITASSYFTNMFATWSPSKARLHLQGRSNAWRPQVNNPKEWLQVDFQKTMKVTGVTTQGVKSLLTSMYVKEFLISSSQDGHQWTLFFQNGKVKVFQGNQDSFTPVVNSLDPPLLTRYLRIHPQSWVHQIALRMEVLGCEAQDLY

B1: exactin (protein)
chain: LECYQKSKVVTCQPEQKFCYSDTTMFFPNHPVYLSGCTFSCTEEGNRRCCTTDKCNR
modifications: disulfide (positions not given here); also: four disulfide bonds, pairing not given here
By Ki is commonly meant the equilibrium dissociation constant of an inhibitor or competing ligand from its target. As to B1, the Ki is 0.154 µM in assay [1]; 1.67 µM in [2]; 0.184 µM with FVIIa [E]; 129 µM in assay [3]; 0.0306 µM in assay [4]; 0.103 µM with FVIIa/FX complex [ES]. In addition, in assay [5], the Ki is 38.7 µM.

B2: exactin (protein)
chain: B1 chain
In the case of B2, the Ki in the assay with FVIIa/sTF complex [E] was 1250 µM; in [6] it was 295 µM.
